Test results as given in patent US20260103513A1 (HEFEI TG IMMUNOPHARMA, published 2026).

T1: TIGIT protein overexpressed on cells (Homo sapiens (Human), UniProt Q495A1 22-244)
T1 construct: also called CHO-K1-TIGIT
T1 sequence: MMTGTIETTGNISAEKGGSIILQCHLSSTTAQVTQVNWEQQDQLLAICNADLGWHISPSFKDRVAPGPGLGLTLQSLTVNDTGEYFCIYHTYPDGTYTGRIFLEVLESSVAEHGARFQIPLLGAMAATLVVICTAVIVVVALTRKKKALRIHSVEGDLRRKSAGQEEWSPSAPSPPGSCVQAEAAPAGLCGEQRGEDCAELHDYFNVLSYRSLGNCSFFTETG

T2: Human TIGIT-His tag fusion protein (human, UniProt Q495A1 22-141)
T2 construct: extracellular domain; Bought (Acro); also called TIGIT extracellular domain-His tag fusion protein; TIGIT protein; not shown: His tag
T2 sequence (looked up): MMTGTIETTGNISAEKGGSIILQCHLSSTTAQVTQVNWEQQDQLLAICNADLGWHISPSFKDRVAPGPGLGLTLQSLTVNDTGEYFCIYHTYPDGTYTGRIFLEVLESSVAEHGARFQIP


Legend:
[1] = molecular target: T1, TIGIT protein overexpressed on cells; experiment: flow cytometry on CHO-K1-TIGIT cells, binding percentage (%)
[2] = molecular target: T1, TIGIT protein overexpressed on cells; experiment: flow cytometry competition on CHO-K1-TIGIT cells; blocked ligand CD155-mIgG2a-Fc, binding percentage (%)
[3] = molecular target: T3, recombinant TIGIT extracellular domain-Fc fusion protein; experiment: SPR, Biacore T200, TIGIT-Fc amine-coupled on CM5, antibody injected, 1:1 Langmuir model
T3 construct: Covalently coupled to the CM5 chip in the Biacore assay; also called TIGIT-Fc
Description: The Biacore method is a well-established objective assay for detecting the affinity and kinetics between proteins. The TIGIT antibody of the present disclosure was analyzed using Biacore T200 to characterize its affinity and binding kinetics.
The TIGIT extracellular domain-Fc fusion protein (TIGIT-Fc) was covalently attached to a CM5 (GE) chip using a standard amino coupling method. A series of TIGIT antibodies diluted in PBS buffer at a concentration gradient was then injected in cycles, followed by regeneration with 10 mM NaOH solution. The antigen-antibody binding kinetics were monitored for 3 minutes, followed by dissociation kinetics for 10 minutes. The resulting data were analyzed using GE's BIAevaluation software in a 1:1 (Langmuir) binding model.

[4] = molecular target: T2, Human TIGIT-His tag fusion protein; experiment: ELISA, human TIGIT-His coated, HRP anti-human IgG, OD450
[5] = molecular target: T1, TIGIT protein overexpressed on cells; experiment: flow cytometry on 293T-TIGIT cells, Alexa-647 anti-human Fc, MFI
[6] = molecular target: T4, Cynomolgus monkey TIGIT-His tag fusion protein (cynomolgus monkey, UniProt A0A7N9I9V4 89-209); experiment: ELISA, cynomolgus TIGIT-His coated, HRP anti-human IgG, OD450
T4 construct: extracellular domain; Bought (Acro); also called TIGIT extracellular domain-His tag fusion protein; TIGIT protein; not shown: His tag

[7] = molecular target: T1, TIGIT protein overexpressed on cells; experiment: flow cytometry competition on 293T-TIGIT cells; blocked ligand CD155-mIgG2a-Fc, APC anti-mouse IgG2a, MFI
[8] = molecular target: T2, Human TIGIT-His tag fusion protein; experiment: competition ELISA on coated TIGIT-His; blocked ligand CD155-Biotin; the sheet does not name the species of the TIGIT-His

| EC50 (read off the curve) [1] [µg/mL] | IC50 (read off the curve) [2] [µg/mL] | Kd [3] [nM] | koff [3] [s⁻¹] | kon [3] [M⁻¹ s⁻¹] | EC50 (read off the curve) [4] [µg/mL] | EC50 (read off the curve) [5] [µg/mL] | EC50 (read off the curve) [6] [µg/mL] | IC50 (read off the curve) [7] [µg/mL] | IC50 (read off the curve) [8] [µg/mL] | Binder |
| --- | --- | --- | --- | --- | --- | --- | --- | --- | --- | --- |
| ~0.05 | ~0.2 | – | – | – | – | – | – | – | – | H401LV2-mIgG2a (antibody, Mouse IgG2a constant region, mouse kappa light chain (H401LV2-mK); also called TIGIT antibody H401LV2-mIgG2a) heavy: QVQLQESGPGLVKPSQTLSLTCTVTGSSITSDYAWNWIRQFPGKKLEWMGYITYSGRTTYNPSLKSRITISRDTSKNQFSLKLSSVTAADTATYYCARWGLLRRYFDYWGQGTLLTVSSAKTTAPSVYPLAPVCGDTTGSSVTLGCLVKGYFPEPVTLTWNSGSLSSGVHTFPAVLQSDLYTLSSSVTVTSSTWPSQSITCNVAHPASSTKVDKKIEPRGPTIKPCPPCKCPAPNLLGGPSVFIFPPKIKDVLMISLSPIVTCVVVDVSEDDPDVQISWFVNNVEVHTAQTQTHREDYNSTLRVVSALPIQHQDWMSGKEFKCKVNNKDLPAPIERTISKPKGSVRAPQVYVLPPPEEEMTKKQVTLTCMVTDFMPEDIYVEWTNNGKTELNYKNTEPVLDSDGSYFMYSKLRVEKKNWVERNSYSCSVVHEGLHNHHTTKSFSRTPGK light: DIVMTQSPSSMSTSVGDRVTITCRASQDVFNQVAWYQQKPGKSPKLLIYSASFRYTGVPDRFSGSGSGTDFTFTISSVQAEDFATYYCQQHYSTPLTFGAGTKLELKRADAAPTVSIFPPSSEQLTSGGASVVCFLNNFYPKDINVKWKIDGSERQNGVLNSWTDQDSKDSTYSMSSTLTLTKDEYERHNSYTCEATHKTSTSPIVKSFNRNEC |
| ~0.2 | ~0.2 | – | – | – | – | – | – | – | – | 22G2 (antibody, mouse IgG2a, kappa, V domains shown, Comparator, mouse IgG2a heavy and mouse kappa light constant regions; the printed heavy chain reads VVVAVSE (as in the D265A form) although it is named only mIgG2a; also called 22G2-mIgG2a; 22G2 antibody) VH: QVQLQESGPGLVKPSETLSLTCTVSGGSVSSGIYYWSWIRQPPGKGLEWIGYIYYSGSTNYNPSLKSRVTISVDTSKNQFSLKLSSVTAADTAVYYCARDYYVSGNYYNVDYYFFGVDVWGQGTTVTVSS VL: EIVLTQSPATLSLSPGERATLSCRASQSVSSYLAWYQQKPGQAPRLLIYDASNRATGIPARFSGSGSGTDFTLTISSLEPEDFAVYYCQQRSNWPPLFTFGPGTKVDIKR |
| – | – | ≤ 0.00508 | ≤ 1e-06 | 197000 | – | – | – | – | – | H401LV2 (antibody, V domains shown, also called matured TIGIT antibody H401LV2) VH: QVQLQESGPGLVKPSQTLSLTCTVTGSSITSDYAWNWIRQFPGKKLEWMGYITYSGRTTYNPSLKSRITISRDTSKNQFSLKLSSVTAADTATYYCARWGLLRRYFDYWGQGTLLTVSS VL: DIVMTQSPSSMSTSVGDRVTITCRASQDVFNQVAWYQQKPGKSPKLLIYSASFRYTGVPDRFSGSGSGTDFTFTISSVQAEDFATYYCQQHYSTPLTFGAGTKLELK |
| – | – | – | – | – | ~0.04 | ~0.4 | ~0.02 | ~0.5 | ~0.8 | H401LV2-hIgG1 (antibody, Wild-type human IgG1 constant region, human kappa light chain (H401LV2-hK); also called TIGIT antibody H401LV2) heavy: not shown light: DIVMTQSPSSMSTSVGDRVTITCRASQDVFNQVAWYQQKPGKSPKLLIYSASFRYTGVPDRFSGSGSGTDFTFTISSVQAEDFATYYCQQHYSTPLTFGAGTKLELKRTVAAPSVFIFPPSDEQLKSGTASVVCLLNNFYPREAKVQWKVDNALQSGNSQESVTEQDSKDSTYSLSSTLTLSKADYEKHKVYACEVTHQGLSSPVTKSFNRGEC |
| – | – | – | – | – | ~0.04 | – | ~0.02 | ~0.5 | ~0.8 | H401LV2-hIgG4S228P (antibody, also called TIGIT antibody H401LV2) heavy: not shown light: DIVMTQSPSSMSTSVGDRVTITCRASQDVFNQVAWYQQKPGKSPKLLIYSASFRYTGVPDRFSGSGSGTDFTFTISSVQAEDFATYYCQQHYSTPLTFGAGTKLELKRTVAAPSVFIFPPSDEQLKSGTASVVCLLNNFYPREAKVQWKVDNALQSGNSQESVTEQDSKDSTYSLSSTLTLSKADYEKHKVYACEVTHQGLSSPVTKSFNRGEC |
| – | – | 5.06 | 0.000501 | 98900 | – | – | ~0.04 | – | ~0.8 | Hu4A501 (antibody, V domains shown, also called parental antibody Hu4A501; parent antibody Hu4A501) VH: QVQLQESGPGLVKPSQTLSLTCTVTGSSITSDYAWNWIRQFPGKKLEWMGYITYSGRTTYNPSLKSRITISRDTSKNQFSLKLSSVTAADTATYYCARWGLLRRYFDYWGQGTLLTVSS VL: DIVMTQSPSSMSTSVGDRVTITCRASQDVFTAVAWYQQKPGKSPKLLIYSASFRYTGVPDRFSGSGSGTDFTFTISSVQAEDFATYYCQQHYSTPLTFGAGTKLELKR |
| – | – | – | – | – | ~0.04 | ~0.6 | ~0.02 | ~0.5 | ~0.8 | H401LV2-hIgG1LALA (antibody, also called TIGIT antibody H401LV2) heavy: not shown light: DIVMTQSPSSMSTSVGDRVTITCRASQDVFNQVAWYQQKPGKSPKLLIYSASFRYTGVPDRFSGSGSGTDFTFTISSVQAEDFATYYCQQHYSTPLTFGAGTKLELKRTVAAPSVFIFPPSDEQLKSGTASVVCLLNNFYPREAKVQWKVDNALQSGNSQESVTEQDSKDSTYSLSSTLTLSKADYEKHKVYACEVTHQGLSSPVTKSFNRGEC |
| ~0.1 | ~0.3 | – | – | – | – | – | – | – | – | 4.1D3 (antibody, mouse IgG2a, kappa, V domains shown, Comparator, made with mouse IgG2a heavy and mouse kappa light constant regions; also called 4.1D3-mIgG2a; 4.1D3 antibody) VH: EVQLQQSGPGLVKPSQTLSLTCAISGDSVSSNSAAWNWIRQSPSRGLEWLGKTYYRFKWYSDYAVSVKGRITINPDTSKNQFSLQLNSVTPEDTAVFYCTRESTTYDLLAGPFDYWGQGTLVTVSS VL: not shown |
